Measured values reported in patent publication US20230167158A1.

Target: human CD3 on activated lymphocytes (human)
Experiment: cell-based or functional assay

Row | Substance | GFP positive cells after transduction of activated lymphocytes (GFP vector) [%]
1 | OKT3-CD8a-VSVG | > 50
2 | OKT3-VSVG | 7
